From article PMC9481538, “The interaction between LC8 and LCA5 reveals a novel oligomerization function of LC8 in the ciliary-centrosome system” (Scientific Reports, 2022)

Experiments:
[1] = molecular target: Dynein light chain LC8 (DYNLL2), 6xHis-tagged (UniProt Q96FJ2); assay: SEC; Superose 6 Increase 10/300, DPBS with 200 μM TCEP; LC8 or sLCA5-WT alone; masses estimated from a calibration curve
[2] = molecular target: sLCA5-WT (LCA5 96-430 with N-terminal MBP and C-terminal 6xHis) (human (cDNA library from HEK293)) (UniProt Q86VQ0)
[3] = molecular target: sLCA5-ΔCQS (human (cDNA library from HEK293)) (UniProt Q86VQ0); assay: SEC; Superose 6 Increase 10/300, DPBS with 200 μM TCEP; 30 μM LCA5 construct with 150 μM LC8, injected immediately or after 60 min at 37 °C; fractions analysed by SDS-PAGE and densitometry
[4] = molecular target: sLCA5-WT (LCA5 96-430 with N-terminal MBP and C-terminal 6xHis) (human (cDNA library from HEK293)) (UniProt Q86VQ0); assay: as above
[5] = molecular target: sLCA5-ΔVQT (human (cDNA library from HEK293)) (UniProt Q86VQ0); assay: as above
[6] = molecular target: sLCA5-ΔCQS (human (cDNA library from HEK293)) (UniProt Q86VQ0); assay: ITC; MBP-fused LCA5 construct in the cell, LC8 injected, 37 injections of 1 μl; 37 °C, PBS pH 7.4, 1 mM TCEP
[7] = molecular target: sLCA5-WT (LCA5 96-430 with N-terminal MBP and C-terminal 6xHis) (human (cDNA library from HEK293)) (UniProt Q86VQ0); assay: as above
[8] = molecular target: sLCA5-ΔVQT (human (cDNA library from HEK293)) (UniProt Q86VQ0); assay: as above
[9] = molecular target: FITC-labelled BMF (Bcl-2-modifying factor) peptide (…); assay: fluorescence polarisation; direct titration of 50 nM FITC-BMF peptide with LC8; 25 °C, PBS, 2 mM TCEP, 0.05% Brij

Chain of sLCA5-WT (LCA5 96-430 with N-terminal MBP and C-terminal 6xHis) (human (cDNA library from HEK293)) (Q86VQ0 96-430): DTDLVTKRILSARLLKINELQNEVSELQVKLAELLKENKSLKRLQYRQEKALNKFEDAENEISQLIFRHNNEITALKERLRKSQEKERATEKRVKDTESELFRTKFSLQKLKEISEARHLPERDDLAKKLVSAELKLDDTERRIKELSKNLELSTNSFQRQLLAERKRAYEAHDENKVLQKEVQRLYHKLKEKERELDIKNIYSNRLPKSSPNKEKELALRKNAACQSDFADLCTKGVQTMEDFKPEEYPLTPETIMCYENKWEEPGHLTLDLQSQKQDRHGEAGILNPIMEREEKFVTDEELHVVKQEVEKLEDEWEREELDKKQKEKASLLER
Chain of sLCA5-ΔCQS (human (cDNA library from HEK293)) (Q86VQ0 other isoform, or with tags, fused parts or gaps mutant): as the sequence (Q86VQ0 96-430) above, with C226A, Q227A, S228A counted along it
Chain of sLCA5-ΔVQT (human (cDNA library from HEK293)) (Q86VQ0 other isoform, or with tags, fused parts or gaps mutant): as the sequence (Q86VQ0 96-430) above, with V238A, Q239A, T240A counted along it
Chain of Dynein light chain LC8 (DYNLL2), 6xHis-tagged (from UniProt Q96FJ2 1-89) (natural protein) (Q96FJ2 whole entry): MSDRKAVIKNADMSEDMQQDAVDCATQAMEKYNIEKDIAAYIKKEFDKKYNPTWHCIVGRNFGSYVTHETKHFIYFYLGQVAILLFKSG

## Dynein light chain LC8 (DYNLL2), 6xHis-tagged (from UniProt Q96FJ2 1-89) (natural protein)
[1]
  stoichiometry N: 2
[2]
  increase in the melting temperature of sLCA5-WT in complex with LC8 (CD thermal denaturation at 222 nm, 10-80 °C; 1.2 μM LCA5, 6 μM LC8): 5 °C
[3]
  molar ratio LCA5:LC8 in the LCA5 peak: 2 LCA5:LC8
  molar ratio sLCA5:LC8 in the oligomeric (void) fraction: 1 LCA5:LC8
[4]
  molar ratio LCA5:LC8 in the LCA5 peak: 1 LCA5:LC8
  molar ratio LCA5:LC8 in the intermediate fraction: 1 LCA5:LC8
  molar ratio sLCA5:LC8 in the oligomeric (void) fraction: 0.5 LCA5:LC8
[5]
  molar ratio LCA5:LC8 in the earlier eluted part of the LCA5 peak: 2 LCA5:LC8
  molar ratio LCA5:LC8 in the later part of the LCA5 peak: 1 LCA5:LC8
[6]
  dH: -8.62 kcal/mol
  stoichiometry N: 2 LCA5:LC8
[7]
  dH: -11.8 kcal/mol
  stoichiometry N: 1 LCA5:LC8
[8]
  dH: -12.5 kcal/mol
  stoichiometry N: 2 LCA5:LC8
[9]
  LC8 concentration at 80% saturation of the BMF peptide: 12 µM
